Source: article PMC3683248 (Structure (London, England : 1993), 2009)

Assays:
[1] = target: T1, V3 peptide NY/5 (HIV-1 group M subtype B, isolate NY5, strain); test: ELISA
T1 chain: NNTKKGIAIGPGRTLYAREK

[2] = target: T2, V3 peptide of HIV-1 clade B strain MN (HIV-1 clade B, isolate MN); test: crystal structure
T2 chain: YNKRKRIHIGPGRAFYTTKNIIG

B1: human monoclonal antibody 447-52D (IgG3, lambda) (antibody, V domains shown)
VH: EVQLVESGGGLVKPGGSLRLTCVASGFTFSDVWLNWVRQAPGKGLEWVGRIKSRTDGGTTDYAASVKGRFTISRDDSKNTLYLQMNSLKTEDTAVYSCTTDGFIMIRGVSEDYYYYYMDVWGKGTTVTVSS
VL: QSVLTQPPSVSAAPGQKVTISCSGSSSNIGNNYVLWYQQFPGTAPKLLIYGNNKRPSGIPDRFSGSKSGTSATLGITGLQTGDEADYFCATWDSGLSADWVFGGGTKLTVL
**Q.** Does B1 bind [1]?
**A.** Result: binds

B2: Fab fragment of human monoclonal antibody 537-10D (Fab, V domains shown)
VH: QVQLVQSGGGLVQPGGSLRLSCVASGFTFNNYWMSWVRQAPGKGLEWVANIKQDGNDKYYVDSVKGRFTISRDNAKNSLFLQMNSLRAEDTAVYFCAREFSSYTDHLEYYYDYYYMDVWGKGTTVTVSS
VL: QSALTQPASVSGSPGQSITISCTGTSTDVNGYNYVSWYQQYAGKAPKLIIFDVSKRPSGVSNRFSGSKSGDTASLTISGLQAEDEADYHCSSYTSSTPYVLFGGGTKLTVL
**Q.** Does B2 bind [2]?
**A.** Result: binds
